What all share (assay type): biochemical, Escherichia blattae
Holding throughout (settings): other: transphosphorylation, 100 mM sodium pyrophosphate, 10–100 mM inosine, pH 4, 30° C., 10 min, cell free extract, Hanes-Woolf

Substrate in data set [1]: OC[C@H]1O[C@@H](n2cnc3c(O)ncnc32)[C@H](O)[C@@H]1O
Nature of the data set: Km for inosine, transphosphorylation by S72E/G74D/I153T mutant EB-AP. Here is the method: (§1) In order to construct a mutant EB-AP for expression in Escherichia coli JM109, a plasmid pEPI340 containing a gene for G74D/I153T mutant EB-AP was used as a template for site-directed mutagenesis utilizing PCR. The nucleotide sequences of these plasmids pEPI305 and pEPI340 are disclosed in Japanese Patent Laid-open (Kokai) No. 10-201481/1998, paragraph (0143), Table 12. […]
(§2) Then, the Km value for inosine in the transphosphorylation reaction by each 3-residue replaced mutant EB-AP was measured under the following conditions. […] After 200 μl of 1 N hydrochloric acid was added to stop the reaction, the precipitates were removed by centrifugation, and the produced 5′-inosinic acid was quantified. The Km value was calculated by the Hanes-Woolf plotting.
(§3) 5′-Inosinic acid was analyzed by high performance liquid chromatography (HPLC) under the following conditions. • Column: Cosmosil 5C18-AR (4.6×150 mm), produced by Nakarai Tesque • Mobile phase: 5 mM potassium phosphate buffer (pH 2.8)/methanol=95/5 • Flow rate: 1.0 ml/min • Temperature: room temperature • Detection: UV 245 nm

Substrate in data set [2]: OC[C@H]1O[C@@H](n2cnc3c(O)ncnc32)[C@H](O)[C@@H]1O
Nature of the data set: Km for inosine, transphosphorylation by A72E/10-residue replaced mutant EB-AP. The protocol:
(§4) Then, the Km value for inosine in the transphosphorylation reaction by each 3-residue replaced mutant EB-AP was measured under the following conditions. A reaction mixture (1 ml) containing 100 mM sodium pyrophosphate, 100 mM acetate buffer (pH 4.0), 10–100 mM inosine and 100 μl of the cell free extract was incubated at pH 4 and 30° C. for 10 minutes. After 200 μl of 1 N hydrochloric acid was added to stop the reaction, the precipitates were removed by centrifugation, and the produced 5′-inosinic acid was quantified. The Km value was calculated by the Hanes-Woolf plotting.
as §3
(§5) The S72F mutation that decreased the Km value in the highest degree and the S72E mutation that enhanced the activity in the highest degree in Example 12 were introduced into the 10-residue replaced mutant EB-AP. Since Ser72 was replaced with Ala in the 10-residue replaced mutant EB-AP, the A72F and A72E mutations were actually introduced. […] Furthermore, transphosphorylation activity and reaction rate constant were measured by the method described in Example 12. […]

Substrate in data set [3]: OC[C@H]1O[C@@H](n2cnc3c(O)ncnc32)[C@H](O)[C@@H]1O
Nature of the data set: Km for inosine, transphosphorylation by A72F/10-residue replaced mutant EB-AP. The protocol:
as §4, §3, §5

Substrate in data set [4]: OC[C@H]1O[C@@H](n2cnc3c(O)ncnc32)[C@H](O)[C@@H]1O
Nature of the data set: Km for inosine, transphosphorylation by A72E/L140F/10-residue replaced mutant EB-AP.

Substrate in data set [5]: OC[C@H]1O[C@@H](n2cnc3c(O)ncnc32)[C@H](O)[C@@H]1O
The data set is described as follows: Km for inosine, transphosphorylation by S72M/G74D/I153T mutant EB-AP. Here is the method: as §1, §2, §3

Substrate in data set [6]: OC[C@H]1O[C@@H](n2cnc3c(O)ncnc32)[C@H](O)[C@@H]1O
Nature of the data set: Km for inosine, transphosphorylation by S72W/G74D/I153T mutant EB-AP. Here is the method:
as §1, §2, §3

Substrate in data set [7]: OC[C@H]1O[C@@H](n2cnc3c(O)ncnc32)[C@H](O)[C@@H]1O
Nature of the data set: Km for inosine, transphosphorylation by G74D/I153T mutant EB-AP.

Substrate in data set [8]: OC[C@H]1O[C@@H](n2cnc3c(O)ncnc32)[C@H](O)[C@@H]1O
The data set is described as follows: Km for inosine, transphosphorylation by S72F/G74D/I153T mutant EB-AP. The protocol:
as §1, §2, §3

Substrate in data set [9]: OC[C@H]1O[C@@H](n2cnc3c(O)ncnc32)[C@H](O)[C@@H]1O
The data set is described as follows: Km for inosine, transphosphorylation by 10-residue replaced mutant EB-AP.

Substrate in data set [10]: OC[C@H]1O[C@@H](n2cnc3c(O)ncnc32)[C@H](O)[C@@H]1O
The data set is described as follows: Km for inosine, transphosphorylation by S72D/G74D/I153T mutant EB-AP. The protocol: as §1, §2, §3

Substrate in data set [11]: OC[C@H]1O[C@@H](n2cnc3c(O)ncnc32)[C@H](O)[C@@H]1O
The data set is described as follows: Km for inosine, transphosphorylation by S72Y/G74D/I153T mutant EB-AP. The protocol: as §1, §2, §3

Substrate in data set [12]: OC[C@H]1O[C@@H](n2cnc3c(O)ncnc32)[C@H](O)[C@@H]1O
The data set is described as follows: Km for inosine, transphosphorylation by S72V/G74D/I153T mutant EB-AP. Here is the method:
as §1, §2, §3

Substrate in data set [13]: OC[C@H]1O[C@@H](n2cnc3c(O)ncnc32)[C@H](O)[C@@H]1O
The data set is described as follows: Km for inosine, transphosphorylation by A72E/L140K/10-residue replaced mutant EB-AP.

Substrate in data set [14]: OC[C@H]1O[C@@H](n2cnc3c(O)ncnc32)[C@H](O)[C@@H]1O
Nature of the data set: Km for inosine, transphosphorylation by S72T/G74D/I153T mutant EB-AP. Here is the method:
as §1, §2, §3

Substitutions are numbered along the chain they refer to. In names and notes the source's numbering stands.

As usually defined, the Km is the substrate concentration at which the rate is half of its maximum.

B1: Escherichia blattae acid phosphatase (EB-AP, SEQ ID NO: 2 / 124) mutant S72E/G74D/I153T (Shimwellia blattae; G92D/I171T/S90E) (protein)
chain: LVATGNDTTTKPDLYYLKNSEAINSLALLPPPPAVGSIAFLNDQAMYEQGRLLRNTERGKLAAEDANLSEGDVANAFSGAFGSPITEKDAPALHKLLTNMIEDAGDLATRSAKDHYMRIRPFAFYGVSTCNTTEQDKLSKNGSYPSGHTSTGWATALVLAEINPQRQNEILKRGYELGQSRVICGYHWQSDVDAARVVGSAVVATLHTNPAFQQQLQKAKAEFAQHQKK
As to B1, the Km in data set [1] is listed as 40 mM.

B2: Escherichia blattae acid phosphatase (EB-AP, SEQ ID NO: 2 / 124) mutant A72E/10-residue replaced (L63Q/A65Q/E66A/N69D/S71A/S72A/G74D/T135K/E136D/I153T with … (protein)
chain: B1 chain with L61Q, A63Q, E64A, N67D, S69A, T133K, E134D
For the protein B2, in data set [2], the Michaelis constant (Km) was 15 mM.

B3: Escherichia blattae acid phosphatase (EB-AP, SEQ ID NO: 2 / 124) mutant A72F/10-residue replaced (L63Q/A65Q/E66A/N69D/S71A/S72A/G74D/T135K/E136D/I153T with … (protein)
chain: B1 chain with L61Q, A63Q, E64A, N67D, S69A, E70F, T133K, E134D
As for B3, the Michaelis constant (Km) in [3] turned out to be 9 mM.

B4: Escherichia blattae acid phosphatase (EB-AP, SEQ ID NO: 2 / 124) mutant A72E/L140F/10-residue replaced (L63Q/A65Q/E66A/N69D/S71A/S72A/G74D/T135K/E136D/I153T … (protein)
chain: B1 chain with L61Q, A63Q, E64A, N67D, S69A, T133K, E134D, L138F
Consider B4, for which the Km in data set [4] was 9 mM.

B5: Escherichia blattae acid phosphatase (EB-AP, SEQ ID NO: 2 / 124) mutant S72M/G74D/I153T (Shimwellia blattae; G92D/I171T/S90M) (protein)
chain: B1 chain with E70M
For B5, in [5], the Km was determined as 46 mM.

B6: Escherichia blattae acid phosphatase (EB-AP, SEQ ID NO: 2 / 124) mutant S72W/G74D/I153T (Shimwellia blattae; G92D/I171T/S90W) (protein)
chain: B1 chain with E70W
In the case of B6, the Michaelis-Menten constant (Km) in data set [6] is recorded as 30 mM.

B7: Escherichia blattae acid phosphatase (EB-AP, SEQ ID NO: 2 / 124) mutant G74D/I153T (Shimwellia blattae; G92D/I171T) (protein)
chain: B1 chain with E70S
In the case of B7, in data set [7], the Km worked out at 100 mM.

B8: Escherichia blattae acid phosphatase (EB-AP, SEQ ID NO: 2 / 124) mutant S72F/G74D/I153T (Shimwellia blattae; G92D/I171T/S90F) (protein)
chain: B1 chain with E70F
Consider B8, for which the Km in [8] is 20 mM.

B9: Escherichia blattae acid phosphatase (EB-AP, SEQ ID NO: 2 / 124) 10-residue replaced mutant L63Q/A65Q/E66A/N69D/S71A/S72A/G74D/T135K/E136D/I153T (Shimwellia … (protein)
chain: B1 chain with L61Q, A63Q, E64A, N67D, S69A, E70A, T133K, E134D
With B9, the Km in data set [9] was found to be 40 mM.

B10: Escherichia blattae acid phosphatase (EB-AP, SEQ ID NO: 2 / 124) mutant S72D/G74D/I153T (Shimwellia blattae; G92D/I171T/S90D) (protein)
chain: B1 chain with E70D
As to B10, the Km in data set [10] came to 33 mM.

B11: Escherichia blattae acid phosphatase (EB-AP, SEQ ID NO: 2 / 124) mutant S72Y/G74D/I153T (Shimwellia blattae; G92D/I171T/S90Y) (protein)
chain: B1 chain with E70Y
In the case of B11, in [11], the Michaelis constant (Km) is 25 mM.

B12: Escherichia blattae acid phosphatase (EB-AP, SEQ ID NO: 2 / 124) mutant S72V/G74D/I153T (Shimwellia blattae; G92D/I171T/S90V) (protein)
chain: B1 chain with E70V
Turning to B12, the Km in [12] was found to be 40 mM.

B13: Escherichia blattae acid phosphatase (EB-AP, SEQ ID NO: 2 / 124) mutant A72E/L140K/10-residue replaced (L63Q/A65Q/E66A/N69D/S71A/S72A/G74D/T135K/E136D/I153T … (protein)
chain: B1 chain with L61Q, A63Q, E64A, N67D, S69A, T133K, E134D, L138K
Regarding B13, in [13], the Km was 78 mM.

B14: Escherichia blattae acid phosphatase (EB-AP, SEQ ID NO: 2 / 124) mutant S72T/G74D/I153T (Shimwellia blattae; G92D/I171T/S90T) (protein)
chain: B1 chain with E70T
For the protein B14, the Michaelis-Menten constant (Km) in data set [14] was found to be 50 mM.

Source of the values: patent US6987008B1, “Variant nucleoside-5′-phosphate producing enzyme” (priority 1999, dated 2006).
